Measurements from patent publication US7947468B2, “Methods” (Medical Research Council, priority 2007, dated 2011).
Changes are numbered by the printed parent chain. Names may count otherwise.

B1: GST-LRRK2[1326-2527] (Homo sapiens) (protein)
chain: LKKAVPYNRMKLMIVGNTGSGKTTLLQQLMKTKKSDLGMQSATVGIDVKDWPIQIRDKRKRDLVLNVWDFAGREEFYSTHPHFMTQRALYLAVYDLSKGQAEVDAMKPWLFNIKARASSSPVILVGTHLDVSDEKQRKACMSKITKELLNKRGFPAIRDYHFVNATEESDALAKLRKTIINESLNFKIRDQLVVGQLIPDCYVELEKIILSERKNVPIEFPVIDRKRLLQLVRENQLQLDENELPHAVHFLNESGVLLHFQDPALQLSDLYFVEPKWLCKIMAQILTVKVEGCPKHPKGIISRRDVEKFLSKKRKFPKNYMSQYFKLLEKFQIALPIGEEYLLVPSSLSDHRPVIELPHCENSEIIIRLYEMPYFPMGFWSRLINRLLEISPYMLSGRERALRPNRMYWRQGIYLNWSPEAYCLVGSEVLDNHPESFLKITVPSCRKGCILLGQVVDHIDSLMEEWFPGLLEIDICGEGETLLKKWALYSFNDGEEHQKILLDDLMKKAEEGDLLVNPDQPRLTIPISQIAPDLILADLPRNIMLNNDELEFEQAPEFLLGDGSFGSVYRAAYEGEEVAVKIFNKHTSLRLLRQELVVLCHLHHPSLISLLAAGIRPRMLVMELASKGSLDRLLQQDKASLTRTLQHRIALHVADGLRYLHSAMIIYRDLKPHNVLLFTLYPNAAIIAKIADYGIAQYCCRMGIKTSEGTPGFRAPEVARGNVIYNQQADVYSFGLLLYDILTTGGRIVEGLKFPNEFDELEIQGKLPDPVKEYGCAPWPMVEKLIKQCLKENPQERPTSAQVFDILNSAELVCLTRRILLPKNVIVECMVATHHNSRNASIWLGCGHTDRGQLSFLDLNTEGYTSEEVADSRILCLALVHLPVEKESWIVSGTQSGTLLVINTEDGKKRHTLEKMTDSVTCLYCNSFSKQSKQKNFLLVGTADGKLAIFEDKTVKLKGAAPLKILNIGNVSTPLMCLSESTNSTERNVMWGGCGTKIFSFSNDFTIQKLIETRTSQLFSYAAFSDSNIITVVVDTALYIAKQNSPVVEVWDKKTEKLCGLIDCVHFLREVMVKENKESKHKMSYSGRVKTLCLQKNTALWIGTGGGHILLLDLSTRRLIRVIYNFCNSVRVMMTAQLGSLKNVMLVLGYNRKNTEGTQKQKEIQSCLTVWDINLPHEVQNLEKHIEVRKELAEKMRRTSVE
notes: phosphorylated by both non-mutated GST-LRRK2[1326-2527] and GST-LRRK2[1326-2527, G2019S]; made in house; host or cells: HEK 293 cells, pEBG-2T vector
B2: GST-LRRK2[1326-2527, G2019S] (Homo sapiens; G2019S) (protein)
chain: B1 chain with G694S
notes: made in house; host or cells: HEK 293 cells, pEBG-2T vector

Assays:
[1] = substrate: CC[C@H](C)[C@H](NC(=O)[C@H](CCC(N)=O)NC(=O)[C@H](CCCNC(=N)N)NC(=O)[C@H](CC(C)C)NC(=O)[C@@H](NC(=O)[C@H](CCCCN)NC(=O)[C@H](Cc1ccc(O)cc1)NC(=O)[C@H](CCCCN)NC(=O)[C@H](CC(=O)O)NC(=O)[C@H](CCCNC(=N)N)NC(=O)CNC(=O)[C@H](CC(C)C)NC(=O)[C@@H](N)CCCNC(=N)N)[C@@H](C)O)C(=O)N[C@@H](CCCNC(=N)N)C(=O)N[C@@H](CCC(N)=O)C(=O)O; test: Assay of LRRK2 using LRRKtide as substrate (non-mutated enzyme); type: biochemical, human; conditions: other: non-mutated GST-LRRK2[1326-2527], varying LRRKtide, 0.1 mM ATP, 30 min 30° C.
Description: (§1) Assay of LRRK2 using LRRKtide as substrate. Assays were set up in a total volume of 50 μl of Buffer A containing 0.5-0.7 μg of either wild type or mutant forms LRRK2, 10 mM MgCl2 and 0.1 mM [γ^32P]-ATP (300 cpm/pmol) in the presence of 300 μM or the indicated concentration of LRRKtide (RLGRDKYKTLRQIRQ; SEQ ID NO:1) peptide substrate. After incubation for 30 min at 30° C., reactions were terminated by applying 40 μl of the reaction mixture onto P81 phosphocellulose paper and phosphorylation of LRRKtide was quantified following washing the P81 phosphocellulose in 50 mM phosphoric acid and Cherenkov counting. One Unit (U) of LRRK2 activity was defined as the amount of enzyme that catalysed the incorporation of 1 nmol of ^32P into LRRKtide. Km and Vmax parameters were determined by performing the assay described above using varying concentration of LRRKtide. The Km and Vmax parameters were calculated using the Graph-Pad prism programme.

[2] = substrate: CC[C@H](C)[C@H](NC(=O)[C@H](CCC(N)=O)NC(=O)[C@H](CCCNC(=N)N)NC(=O)[C@H](CC(C)C)NC(=O)[C@@H](NC(=O)[C@H](CCCCN)NC(=O)[C@H](Cc1ccc(O)cc1)NC(=O)[C@H](CCCCN)NC(=O)[C@H](CC(=O)O)NC(=O)[C@H](CCCNC(=N)N)NC(=O)CNC(=O)[C@H](CC(C)C)NC(=O)[C@@H](N)CCCNC(=N)N)[C@@H](C)O)C(=O)N[C@@H](CCCNC(=N)N)C(=O)N[C@@H](CCC(N)=O)C(=O)O; test: Assay of LRRK2 using LRRKtide as substrate (G2019S mutant); type: biochemical, human; conditions: other: GST-LRRK2[1326-2527, G2019S], varying LRRKtide, 0.1 mM ATP, 30 min 30° C.
Description: as §1

| Protein | Km [1] [µM] | Km [2] [µM] | Vmax [2] [U/mg] |
| --- | --- | --- | --- |
| B1 | 200 | – | – |
| B2 | – | 200 | 10 |
